Data on 3 molecules can be found in paper PMC10379010, “Short Peptides of Innate Immunity Protein Tag7 (PGLYRP1) Selectively Induce Inhibition or Activation of Tumor Cell Death via TNF Receptor” (International Journal of Molecular Sciences, 2023).

First the molecules themselves.
B1: Tag7 protein (PGLYRP1) (natural protein)
chain: QETEDPACCSPIVPRNEWKALASECAQHLSLPLRYVVVSHTAGSSCNTPASCQQQARNVQHYHMKTLGWCDVGYNFLIGEDGLVYEGRGWNFTGAHSGHLWNPMSIGISFMGNYMDRVPTPQAIRAAQGLLACGVAQGALRSNYVLKGHRDVQRTLSPGNQLYHLIQNWPHYRSP

The target of the experiment is Hsp70 (recombinant) (UniProt P0DMV8). Description: MST; sTNFR1 or Hsp70 labeled with Alexa Fluor 633 or 488 (200 nM), 20 min in the dark at room temperature with 16 concentrations of each compound; Monolith NT 115, IR laser power 10%; apparent Kd; triplicate.
Consider HRDVQRT [peptide 17.1A], for which the Kd worked out at 222 nM. For B1 the value was 1.73 nM. For the molecule RSNYVLKG [peptide 17.1B], the Kd was 3.15 nM.
